This test has as its target T1, GST–HCF-1-C (GST fusion of the C-terminal half of human HCF-1, 1012–2036) (human, UniProt P51610 1012-2035).
T1 construct: HCF-1 (host cell factor C1), human, C-terminal half, residues 1012-2036 as printed; the printed end 2036 may count the stop codon; also called pGEX4T-1-hHCF-1-C; source: E. coli BL21(DE3), purified from soluble lysates
T1 sequence (looked up): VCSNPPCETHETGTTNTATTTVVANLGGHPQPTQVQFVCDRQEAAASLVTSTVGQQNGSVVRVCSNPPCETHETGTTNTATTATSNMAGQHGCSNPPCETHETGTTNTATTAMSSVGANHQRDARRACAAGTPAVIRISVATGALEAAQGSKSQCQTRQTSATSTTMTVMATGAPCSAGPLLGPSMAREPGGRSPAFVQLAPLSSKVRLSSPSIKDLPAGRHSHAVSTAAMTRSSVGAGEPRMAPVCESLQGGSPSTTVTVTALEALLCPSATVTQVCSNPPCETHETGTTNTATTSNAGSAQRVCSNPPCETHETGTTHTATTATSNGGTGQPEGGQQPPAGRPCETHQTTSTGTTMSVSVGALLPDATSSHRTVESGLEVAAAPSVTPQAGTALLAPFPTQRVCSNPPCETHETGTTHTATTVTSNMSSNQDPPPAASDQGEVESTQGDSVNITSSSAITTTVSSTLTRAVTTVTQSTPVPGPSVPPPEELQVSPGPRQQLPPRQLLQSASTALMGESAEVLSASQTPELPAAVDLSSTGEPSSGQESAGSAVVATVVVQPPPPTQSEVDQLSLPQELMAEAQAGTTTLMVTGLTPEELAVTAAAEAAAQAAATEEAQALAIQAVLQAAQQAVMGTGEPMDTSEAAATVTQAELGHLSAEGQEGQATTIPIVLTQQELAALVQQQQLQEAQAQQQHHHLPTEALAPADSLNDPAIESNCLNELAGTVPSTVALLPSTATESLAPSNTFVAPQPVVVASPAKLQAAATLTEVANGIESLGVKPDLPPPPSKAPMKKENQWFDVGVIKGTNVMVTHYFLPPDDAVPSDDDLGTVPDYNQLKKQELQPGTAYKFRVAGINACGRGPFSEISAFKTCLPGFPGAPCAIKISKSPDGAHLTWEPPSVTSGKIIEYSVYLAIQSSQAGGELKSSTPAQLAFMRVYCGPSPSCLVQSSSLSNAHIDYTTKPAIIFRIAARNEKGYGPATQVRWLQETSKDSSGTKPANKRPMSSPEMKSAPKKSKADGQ
The experiment in a line: pull-down; glutathione-Sepharose-immobilized GST-OGT and GST–HCF-1-C incubated with recombinant His6-tagged NRF1 fragments Fr. 1 and Fr. 2; washed extensively with PBS-T; immunoblot with anti-His6 and anti-GST. The note with it: both partners purified.

The source of these data is PMC6094050, “O-GlcNAcylation Signal Mediates Proteasome Inhibitor Resistance in Cancer Cells by Stabilizing NRF1” (Molecular and Cellular Biology, 2018).

B1: mNRF1-Neh6L-His6 (Fr. 2; 431–580) (domain or fragment, mouse, UniProt Q61985 431-580, looked up)
chain: GFNPVQASQLEEEFDSDSGLSLDSSHSPSSLSSSEGSSSSSSSSSSSSASSSASSSFSEEGAVGYSSDSETLDLEEAEGAVGYQPEYSKFCRMSYQDPSQLSCLPYLEHVGHNHTYNMAPSALDSADLPPPSTLKKGSKEKQADFLDKQM
notes: NRF1, mouse, Neh6L domain, residues 431-580; The name is printed both as NRF1-Neh6L-His6 and as His6-NRF1-Neh6L; also called His6-NRF1-Neh6L; fragment 2; source: E. coli BL21(DE3), purified (Ni-NTA agarose)
For B1, the binding result is “binds”.
